To fix the notation:
B1: Peroxiredoxin-1 (Gallus gallus (Chicken)), P0CB50 (parent)
chain: MSSGKAFIGKPAPDFTATAVMPDGQFKDIKLSDYRGKYVVFFFYPLDFTFVCPTEIIAYSDRADEFKKINCEIIGASVDSHFCHLAWINTPKKQGGLGTMKIPLVSDTKRVIAKDYGVLKEDEGIAYRGLFIIDEKGILRQITINDLPVGRSVDETLRLVQAFQFTDKHGEVCPAGWKPGSDTIKPDVQKSKEYFSKQK
partner: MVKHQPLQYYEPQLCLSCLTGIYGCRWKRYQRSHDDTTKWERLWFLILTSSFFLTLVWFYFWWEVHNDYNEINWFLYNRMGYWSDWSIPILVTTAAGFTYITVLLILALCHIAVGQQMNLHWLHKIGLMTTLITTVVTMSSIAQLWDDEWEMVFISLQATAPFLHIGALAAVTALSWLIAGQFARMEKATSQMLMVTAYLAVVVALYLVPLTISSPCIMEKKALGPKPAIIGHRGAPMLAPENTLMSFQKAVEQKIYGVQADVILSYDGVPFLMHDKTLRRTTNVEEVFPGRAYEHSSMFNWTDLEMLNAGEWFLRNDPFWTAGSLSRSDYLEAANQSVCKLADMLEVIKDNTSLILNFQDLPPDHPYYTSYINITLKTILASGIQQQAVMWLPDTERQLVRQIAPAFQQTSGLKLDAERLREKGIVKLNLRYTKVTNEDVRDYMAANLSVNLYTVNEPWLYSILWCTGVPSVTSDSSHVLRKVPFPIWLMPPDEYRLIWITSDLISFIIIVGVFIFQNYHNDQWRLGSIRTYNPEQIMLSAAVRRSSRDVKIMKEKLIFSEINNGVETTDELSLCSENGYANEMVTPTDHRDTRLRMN

The values below come from IntAct's records for PubMed 19766572.

The assay covers variants of B1. The following applies: with gdpd5_chick GDPD5, Q3KTM2.
In the case of C52S;C173S, the “effect of a mutation on the interaction” value is recorded as “disrupting interaction”.
